According to patent US20240092930A1 (MABWELL SHANGHAI BIOSCIENCE, published 2024):

T1: recombinant human Trop-2-his protein (ACCESSION NO.: NP_002344.2, AA 1-274) (human, UniProt P09758 27-274)
T1 construct: range 27-274; also called recombinant human Trop-2 protein; recombinant human Trop-2 extracellular domain; not shown: his tag
T1 sequence (looked up): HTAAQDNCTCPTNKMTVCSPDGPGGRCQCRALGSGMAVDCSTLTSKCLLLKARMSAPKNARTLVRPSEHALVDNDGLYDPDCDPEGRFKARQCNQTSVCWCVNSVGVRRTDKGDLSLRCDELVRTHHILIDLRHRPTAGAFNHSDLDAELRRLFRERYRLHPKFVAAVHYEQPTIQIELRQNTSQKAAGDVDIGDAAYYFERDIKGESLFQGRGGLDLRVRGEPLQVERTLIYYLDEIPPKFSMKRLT

T2: human Trop-2 on the surface of cells (CHO/Trop-2 cells; BxPC-3 cells; NCI-N87 cells) (human, UniProt P09758 27-323)
T2 sequence (looked up): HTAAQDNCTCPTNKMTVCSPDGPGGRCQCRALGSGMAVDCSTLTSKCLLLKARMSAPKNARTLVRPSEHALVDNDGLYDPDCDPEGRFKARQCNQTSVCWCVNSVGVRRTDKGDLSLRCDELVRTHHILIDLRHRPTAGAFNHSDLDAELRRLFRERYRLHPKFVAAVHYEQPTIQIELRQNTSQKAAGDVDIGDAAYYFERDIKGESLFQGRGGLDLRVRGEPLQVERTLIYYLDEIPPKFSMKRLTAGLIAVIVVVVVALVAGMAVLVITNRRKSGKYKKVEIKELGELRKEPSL

T3: recombinant mouse Trop-2-his protein (Cat.: 50922-M08H, Beijing Yiqiao Shenzhou Science and Technology Co., … (mouse, UniProt Q8BGV3 25-270))
T3 construct: Bought protein; not shown: his tag
T3 sequence (looked up): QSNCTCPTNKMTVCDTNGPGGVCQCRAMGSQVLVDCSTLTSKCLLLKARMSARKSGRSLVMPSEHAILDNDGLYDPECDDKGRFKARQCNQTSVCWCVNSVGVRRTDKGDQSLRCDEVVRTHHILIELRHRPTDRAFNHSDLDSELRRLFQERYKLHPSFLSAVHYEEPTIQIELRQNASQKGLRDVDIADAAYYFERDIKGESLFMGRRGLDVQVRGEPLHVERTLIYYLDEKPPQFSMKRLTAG

T4: recombinant cynomolgus Trop-2-his protein (ACCESSION NO.: UniProtKB-A0A2K5UE71, AA 1-272) (cynomolgus, UniProt A0A2K5UE71 1-272)
T4 construct: The printed range begins at residue 1; not shown: his tag
T4 sequence: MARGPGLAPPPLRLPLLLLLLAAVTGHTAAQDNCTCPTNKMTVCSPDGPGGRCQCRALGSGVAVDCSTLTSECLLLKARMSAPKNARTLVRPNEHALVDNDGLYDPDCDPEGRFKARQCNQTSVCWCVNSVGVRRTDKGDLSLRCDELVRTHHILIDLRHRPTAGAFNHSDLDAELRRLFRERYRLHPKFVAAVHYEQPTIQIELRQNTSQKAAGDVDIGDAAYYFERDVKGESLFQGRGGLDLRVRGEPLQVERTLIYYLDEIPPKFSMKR


Experiments:
[1] = molecular target: T1, recombinant human Trop-2-his protein …; assay: ELISA, coated human Trop-2-his 1 µg/ml
Experimental: (§1) Washed with PBS 3 times, the plates were blocked with the added 5% BSA PBS at 37° C. for 60 min, and then washed 3 times with PBST. Different concentrations of h23-12 (serial dilutions of 14 concentrations obtained through 3-fold serially diluting a solution with an initial concentration of 10 μg/ml), h4-3 (serial dilutions of 12 concentrations obtained through 3-fold serially diluting a solution with an initial concentration of 3 μg/ml), and Sacituzumab (serial dilutions of 12 concentrations obtained through 3-fold serially diluting a solution with an initial concentration of 3 μg/ml) were added into the plates, with each concentration provided in a parallel well. The plates were incubated at 37° C. for 60 min, and then were washed 4 times with PBST. 1:5000 dilution of H1RP-anti-human Fc (Cat.: 109-035-098, Jackson ImmunoResearch) was added into the plates for incubation at 37° C. for 30 min. Afterwards, the plates were washed with PBST 4 times, and TMB substrate was added for color development at 37° C. for 10 min. Then 2M HCl was added to stop reaction; and absorbances at 450 nm and at 630 nm (as reference wavelength) were read, and A450 nm-630 nm values of the wells in the plates were recorded.

[2] = molecular target: T2, human Trop-2 on the surface of cells …; assay: cell-based or functional assay
[3] = molecular target: T3, recombinant mouse Trop-2-his protein …; assay: ELISA, coated mouse Trop-2-his 1 µg/ml
Experimental: as §1

[4] = molecular target: T4, recombinant cynomolgus Trop-2-his …; assay: ELISA, coated cynomolgus Trop-2-his 1 µg/ml
Experimental: as §1

[5] = molecular target: T1, recombinant human Trop-2-his protein …; assay: BLI, antibody on AHC sensor, Trop-2-his 60 nM
Summary of the method: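 Octet BLI: humanized antibodies at 4 μg/ml in PBS captured 120 s on anti-human IgG Fc (AHC) biosensors, then exposed to 60 nM Trop-2-his (AA 1-274) for 100 s association and 300 s dissociation. Blank-subtracted data fitted to 1:1 Langmuir model for kinetic constants.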

Row | EC50 [1] [nM] | Internalization percentage, 1 h, NCI-N87 cells, FACS [2] [%] | binding result [3] | EC50 [4] [nM] | Kd [5] [nM] | Binder
1 | 0.0703 | 49.3 | no binding (tested: up to 3 µg/ml) | 0.0726 | 0.723 | Sacituzumab (antibody, human IgG1, kappa, V domains shown, expressed in HEK293; also called control antibody Sacituzumab; Saituzumab) VH: QVQLQQSGSELKKPGASVKVSCKASGYTFTNYGMNWVKQAPGQGLKWMGWINTYTGEPTYTDDFKGRFAFSLDTSVSTAYLQISSLKADDTAVYFCARGGFGSSYWYFDVWGQGSLVTVSS VL: DIQLTQSPSSLSASVGDRVSITCKASQDVSIAVAWYQQKPGKAPKLLIYSASYRYTGVPDRFSGSGSGTDFTLTISSLQPEDFAVYYCQQHYITPLTFGAGTKVEIKR
2 | 0.0473 | 54 | no binding (tested: up to 10 µg/ml) | 0.124 | 0.502 | h23-12-25 (antibody, human IgG1, kappa, V domains shown, also called h32-12) VH: QVQLVQSGAEVKKPGASVKVSCKASGYTFTSYWMHWVRQAPGQGLEWMGEITPSDNYGSYNQKFKGRVTITRDTSTSTAYMELSSLRSEDTAVYYCARGHGNYVSFDYWGQGTLVTVSS VL: DIQMTQSPSSLSASVGDRVTITCRASQDISNYLNWYQQKPGKAPKLLIYYTSRLESGVPSRFSGSGSGTDFTLTISSLQPEDFATYFCQQGYTLPPYTFGQGTKLEIKR
